# Residue numbers refer to the chain shown, from its start.
# B1: chimeric rabbit/human Fab XBR2-416 (Fab, V domains shown)
# VH: QEQLEESGGRLVTPGTPLTLTCTVSGFSLSSYWMSWVRQAPGKGLEWIGTITPGGNTDYATWAKARFTVSKTSTTVDLKITSPTTEDTATYFCARGIGGAADLWGPGTLVTISS
# VL: AQVLTQTPSSTSAAVGGTVTIKCQASQSISSSDLSWYQQKPGQPPKLLIYATSYLASGVPSRFKGSGSGTEYTLTISGVQREDAATYYCLGGYPNTSYRSAFGGGTKVEIK
# B2: chimeric rabbit/human Fab XBR2-433 (Fab, V domains shown)
# VH: QSVKESEGGLFKPTDTLTLTCTVSGFSLSTYGVSWVRQAPGNGLEWIGAIGSSGSANYASWAKDRSTITRNTNLNTVTLKMTSLTAADTATYFCARDGYYSSGWGPYFNIWGPGTLVTISS
# VL: SFVLTQPASVQVNLGQTVSLTCTADTLSRSYASWYQQKPGQAPVLLIYRDTSRPSGVPDRFSGSSSGNTATLTISGAQAGDEADYYCATSGGSGSNPQYVFGGGTQLTVTG
# B3: chimeric rabbit/human Fab XBR2-327 (Fab, V domains shown)
# VH: QEQLKESGGGLFKPTDTLTLTCTVSGFSLSSGAISWVRQAPGNGLEYIGFVNSLGNTYYANWAKSRSAITRNTNENTVTLKMTSLAAADTATYFCAKDYGNWAFDPWGPGTLVTVSS
# VL: DPVLTQTPSSVSAAVGGTVAINCQASQSISSYLSWYQQKPGQPPKLLIYGASKLASGVPSRFSGSGSGTEYTLTISGVQREDAATYYCLGGYASASYRTAFGGGTKLEIK
# B4: chimeric rabbit/human Fab ERR2-302 (Fab, V domains shown)
# VH: QKQLVESGGGLVKPGGSLTLTCTVSGFSLSSYAIGWVRQAPGNGLEWIGIINSYGSTYYASWAKSRSTITRNTNLNTVTLKMTSLTAADTATYFCARSPYGYVSAWGYHRLDLWGQGTLVTISS
# VL: SYELTQLPSVSVSLGQTARITCGGASIGSKVVHWYQQKPGLAPGLLIYDDDERPSGVPDRFSGSNSGDTATLTISGAQAGDEAEYYCQLWDGSDVVFGGGTQLTVTG
# B5: chimeric rabbit/human Fab ERR2-308 (Fab, V domains shown)
# VH: QEQLEESGGRLVTPGTPLTLTCAVSGFSLSNYAMGWVRQAPGEGLEYIGWISAGGGAYYASWVNGRFTISKTSSTVDLKMTSLTAADTATYFCARGASNGCDLWGPGTLVTVSS
# VL: DPMLTQTPSSVSAVVGGTVTIKCQASQSITSWLSWYQQKPGQPPKLLIYGASHLASGVPSRFKGSGYGTEFTLTISGIQREDAATYYCLGGYSNSDIVFGGGTELEIL
# B6: chimeric rabbit/human Fab ERR2-316 (Fab, V domains shown)
# VH: QKQLVESGGRLVTPGGSLTLTCTVSGFSLSKYGVSWVRQAPGSGLEYIGTIGGSGTSYYASWAKSRSTITRNTNLNTVTLKMTSLTAADTATYFCARYFGWNTGFDIWGPGTLVTISS
# VL: DPVMTQTPSSVSEPVGGTVTIKCQASQSISNALAWYQQKPGQPPKRLIYKASTPASGVPSRFKGSRSGTEYTLTISGVQREDAATYYCLGFSVVSNDGWAFGAGTNVEIK
# B7: chimeric rabbit/human Fab ERR2-317 (Fab, V domains shown)
# VH: QSLEESGGRLVTPGTPLTLTCTASGFSLSSYDMIWVRQAPGKGLEYIGIINAGGNTYYASWAKGRFTISRTSTTVDLKMTSPTTEDTATYFCARGSSWTGDIWGPGTLVTVSS
# VL: B3 VL with V11T, A20T, N22K, L46Q, G50A, K53T, S63K, R98Q, L107V
# B8: chimeric rabbit/human Fab XBR2-TOP9 (Fab, V domains shown)
# VH: QSVEESRGRLVTPGTPLTLICTVSGIDLSSYNIQWVRQAPGKGLEYIGYINTDGSAYYASWAKGRFTISKTSTTVDLKITSPTTEDTATYFCARGGYASGFNLWGPGTLVTISS
# VL: DVVMTQTPSSTSAAVGGTVTIKCQASQNIGPWLSWYQQKPGQPPKQLIYAASTLASGVPSRFKGSGSGTDYTLTISGVQREDAATYYCLGWHSWSDDGWAFGAGTNVEIK
# B9: chimeric rabbit/human Fab XBR2-TOP72 (Fab, V domains shown)
# VH: QEQLEESGGRLVTPGTPLTLTCTVSGIDLSSNAMSWVRQAPGKGLEYVGFINGGGGVHYASWARGRFTISKTSTTVDLKITSPTTEDTATYFCARAGTTYYTSFNLWGPGTLVTISS
# VL: QFVLTQSPSASAALGSSAKLTCTLSSAHKTYTIAWYQQQQGEAPRLLMMLRTDGSYTKGTGVPDRFSGSSSGADRYLIISSVQADDAAGYYCGADYSGGYVFGGGTQLTVTG
# B10: chimeric rabbit/human Fab ERR2-TOP2 (Fab, V domains shown)
# VH: QSLEESGGRLVTPGTPLTLTCTVSGFSLSSYAISWVRQAPGKGLEWIGTIGTRGDTAYANWAKGRFTISKTSTTVTLKMTSPTTEDTATYFCARELVAGGGSDLWGPGTLVTVSS
# VL: DVVMTQTPSSVSAVVGGTVTIKCQASQSITSWLSWYQQKPGQPPKLLIYGASHLASGVPSRFKGSGYGTEFTLTISGIQREDAATYYCLGGYLSASYQTAFGGGTKVEIK
# B11: chimeric rabbit/human Fab ERR2-TOP35 (Fab, V domains shown)
# VH: B2 VH with T14M, S29N, I50V, S55A, A56T, D64S, L74E, N109S, I119V
# VL: SFVLTQPASVQVNLGQTVSLTCTAETLRSSYASWYQQKPGQAPVLLIYRDTSRPSGVPDRFSGSSSGNTATLTISGAQAGDEADYYCATSDGSGSRYYVFGGGTQLTVTG
# Molecular target: hFc-hROR2-T245 (recombinant human ROR2 extracellular domain fused to human Fc) (human) (UniProt Q01974)
# Test: SPR (Biacore X100), hFc-hROR2 captured by anti-human Fc on CM5, Fab as analyte, 1:1 Langmuir model
# hFc-hROR2-T245 (recombinant human ROR2 extracellular domain fused to human Fc) (human), sequence (Q01974 55-394 limits assumed, form in doubt): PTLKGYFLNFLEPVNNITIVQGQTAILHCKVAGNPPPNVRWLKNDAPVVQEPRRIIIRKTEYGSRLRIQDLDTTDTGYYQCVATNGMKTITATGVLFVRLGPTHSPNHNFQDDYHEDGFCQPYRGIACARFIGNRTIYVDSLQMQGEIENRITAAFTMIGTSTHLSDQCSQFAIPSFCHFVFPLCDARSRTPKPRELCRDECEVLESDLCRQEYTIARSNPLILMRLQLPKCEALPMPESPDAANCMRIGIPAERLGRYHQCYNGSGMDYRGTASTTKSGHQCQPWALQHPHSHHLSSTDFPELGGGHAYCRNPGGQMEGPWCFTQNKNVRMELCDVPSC
Binder,koff [s⁻¹],kon [M⁻¹ s⁻¹],Kd [nM]
B1,0.0173,49800,–
B2,0.108,47300,2280
B3,0.00546,95600,57.2
B4,0.00544,104000,52.5
B5,0.000286,27100,–
B6,0.0178,3.34e+06,–
B7,0.0132,83500,–
B8,0.0467,328000,–
B9,0.154,37000,4150
B10,0.00242,29800,–
B11,0.00851,197000,43.3

# From patent publication US20190031754A1
